Measurements published in the nanobody polyreactivity screen of Harvey et al. (2022).

Assay: yeast display, Sf9 membrane polyspecificity reagent, FACS + sequencing; frameworks hold sequencing errors
Summary of the method: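 A nanobody's polyreactivity label depends on the gate it was sorted from. Yeast display cells were stained with 10% biotinylated, detergent-solubilized Sf9 membrane reagent for 1 hour at 4 °C, enriched on streptavidin microbeads and sorted by FACS. The low and high (top ~1%) gates were set on anti-HA fluorescence for expression and streptavidin fluorescence for reagent binding.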

Row | Sequence | polyreactivity (PSR sort gate)
1 | QVQLVESGGGLVQAGGSLRLSCAASGSTFIVYAMGWYRQATGKERELVAAISLDGGSTYYADSVKGRFTISRDNAKNTVYLQMNSLKPEDTAVYYCNADYYANSITYDSWGQGTQVTVSS | low polyreactivity
2 | QVQLVESVVGLVQAGGSLRLSSAASGSIFPYYVMGWYRQAPGKERELVAAISSRGTSTYYADSVKGRFTLSRDNAKNSVYLQMNSLKPEDTAVYYCAAAYVKFYGYSAEYDYCGQGTQVTVSS | low polyreactivity
3 | QVQLVESGGGLVQAGGSLRLSCAASGSTFASNAMGWYRQAPGKERELVAAITSRDASTYYADSVKGRFTISRDKEKNTVYLQMNSLKPEDTAVYYCAPVGYSPAAFDYWGQGTQVTVSS | low polyreactivity
4 | QVQHVESGVGLDQAGGSLRLSCAASGSIFYWNAMGWYRQAPGKEREFVATITITTSTNYADSVKGRFTISRDNAKNPVNLQMNSLKPEDTAVYYCNAGAPYRYLDEYNYWGQGTKVTVSS | low polyreactivity
5 | QVQLVESGGGLVQAGGSLRLSCAASGFTFGDYAMGWYRQAPGKERELVAAISRSGSNTYYADSVKGRFTISRDNAKNTVYLQMNSQKPEDTAVYYCNADYDPEDMDYWGQGTQVTVSS | low polyreactivity
6 | QVQLVESGGGLVQAGGSLRLICAASGRTLSGYAMGWYRQAPGKDRELVAVITSGGSTYYADSVKGRFTISRDNAKNTVYLQMNSLKPEDTAVYYCAARGSRLYSSWRGVYWGQGTQVTVSS | high polyreactivity
7 | QVQLVESGGGLVQAGGSLRLSCAASGRIQDINAMGWYRQAPGKERELVAAISYGGGTTYYADSVKGRFTISRDNAKNTVYLQMNSLKPEDTAVYYCAKDGYFPEFDYWGQGTQVTVSS | high polyreactivity
8 | QVQLVESGGGLVQAGGSLRLSCAASGRIFYFNAMGWYRQAPGKERELDAAISWSGGSTYYADSVKGRFTISRDNAKNTVYLQMNSLKPEDTAVYSCATDSYRQGDYYRGRVDYWGQGTQVTVSS | low polyreactivity
9 | QVQLVESGGGLVQAGGSLRLSCAASGFIFSYYAMGWYRQEPGKERELVAAITSNGGITYYADSVKGRFTISRDNAKNTVYLQMNSLKPEDTAVYYCNAYYTSTSYDYWGQGTQVTVSS | high polyreactivity
10 | QVQLVESGGGLVQAGGSLRLSCAASGSTFGIYAMGWYRPAPGKDREMVAAISSGVDTYYADSVKGRVTISRDNAKNTVDIQMNSLKPEDPAVYYCAADQFQGNSGFEYWGQGTQVTVSS | low polyreactivity
11 | QVQLVESGGGLVQAGGSLRLSCAASGITSGHNAMGWYRQAPGKERELVADIRTGDSTNYADSVKGRFTISRDNAKNTVYLQMNSLKPEDTAVYYCAADSAYDVTSYGYWGQGTQVTVSS | low polyreactivity
12 | QVQLVESGGGLVQAGGSLRLSCAASGRIFYSNAMGWYRQAPGKERELVAAIRWSGGRTYYADSVNGRFTISRDNAKNSVYLQMNSLKPEDTAGYYCNARGYSGVSGKYGYWGQGTQVTVSS | high polyreactivity
13 | QVQLVESGGGLVQAGGSLRLSCAACGGTFGNYAMGWYRQAPGKDRELVAAISTRGGSTYYADSVKGRFTISRDNAKNTVYLQMNSLKPEDTAVYYCNARIKRPRGVYGGDYWGQGTQVTVSS | high polyreactivity
14 | QVQLVESGGGLVQAGGSLRLSCAASGFIFRSYAMGWYRQAPGKERELVAAITHTGTTYYADSVKGRFTISRDNAKNSVYLQMNSLKPEDTAVYYCNANYYRTHYVYWGQGTQVTVSS | high polyreactivity
15 | QVQLVESGGGLVQAGGSLRLSCAASGSIFTYNTMGWYRQAPGKERELVATISWSGGRTYYADSVKGRFTISRDNAKNTVYLQMNSLKPEDTAVYYCAAGYYYGYPPRDYWGQGSQVTVSS | high polyreactivity
16 | QVQLVESGGGLVQAGGSLRLSCAASGLIFQHNAMGWYRQAPGKERELVAAISRSAGSTYYADSVKGRFTISRDNAKNTVYLQMNSLKPEDTAVYYCAKRPTPTSKYDTVRYGYWGQGTQVTVSS | low polyreactivity
17 | QVQLVESGGGLVQAGGSLRLSCAASGSTFAPYVMGCYRQAPGKQRELVAAIRFNGGRTHYADSVKGRFTISRDNAKNTVYLQMNSLKPEDTAVYYCAAEQWRRRNYWGQGTQVTVSS | high polyreactivity
18 | QVQLVDSWGGLVQAGGSLRLSCAASGRTSRYAMGWYRQAPGKERELVAAITSSGGRTYYADSVKGRFTISRDNAKNTVYLQMNSLKPEDTAVYYCAAGYLLWRTWDYAAGHNYWGQGTQVTVSS | high polyreactivity
19 | QVQLEDSGGGLVQAGGSLRLSCAASGFTFSYNAMGWYIQAPGKERELVAAISSRGTSTYYADSVKGRFTISRDNAKNTVYLQMNSLKPEDTAVYYCNTVPYFYLTFYPHYDYWGQGTQVTVSS | high polyreactivity
20 | QVQLVESGGGLVQAGGSLRLSCAASGSTFLVNGMGWYRQAPGKERELVAAISSGDGSTYYADSVKGRFTISRDNAKNTVYLQMNSLKPEDTAVYYCAVDCWWTGYDYWGQGTQVTVSS | low polyreactivity
21 | QVQLVESGGGLVQAGGSLRLSCAASGRTFPRNAMGWYRQAPGKERELVARINWSGGSTTYADSVKGRFTISRDNAKNTVYLQMNSLKPEDTAVYYCNARPYTSSFTKYGPSGYWGQGTQVTVSS | high polyreactivity
22 | QVQLVESGGCLVQAGGSLRLTCAASGFIFPYYAMGWYRQAPGKERELVAGITGADSTYYADSVKGRFTISRDNAKNTVYLQMNSLKPEDTAVYYCARKRYSLSRTYNYGYWGQGTQVTVSS | high polyreactivity

Row | Sequence | polyreactivity (PSR sort gate)
23 | QVQLVESGGGLVQAGGSLRLSCAASGSTFSAYAMGWYRQAPGKERELVAAITRSGGSTYYADSVKGRFTISRDNAKNTVYLQMNSLKPEDTAVYYCAVRGYLLYYPPYKYEYWGQGTQVTVSS | high polyreactivity
24 | QVQLVESGGGLVQAGGSLRLSCAASGFIFARNAMGRYRQDTGKERELVAVISTRGRTYYADSVKGRFTISRDNSKNTVYLQMNSLKPEDTAVYYCNADKVIGYDYWGQCTQVTVSS | high polyreactivity
25 | QVQLVESGGGLVQAGGSLRLSCAASGRTLRTYTMGWYRQAPGKERELVAAISSSDDSTYYADSVKGRFTISRDNAKNTVYLQMNSLKPEDTAVYYCAKDGLYPTEYGYWGQGTQVTVSS | high polyreactivity
26 | QVQLVESGGGLVQAGGSLRLSCAASGSIISGYAMGWYRQAPGTERELVAAISSSGGRTYYADSVKGRFTISRDNAKNTVYLQMNSLKPEDTAVYYCAAAYTITYDYWGQGTQVTVSS | high polyreactivity
27 | QVQLVESGGGLVQAGGSLRLSCAASGSTFRQNAMGWYRQAPGKERELVAAISSIGDSTNYADSVKGRFTISRDNAKNTVYLQMNSLKPEDTAVYYCAARTVQQRRRLYYWGQGTQVTVSS | high polyreactivity
28 | QVQLVESGGGLVQAGGSLRLTCAASGITFGDYALGWYRQAPGKERELVAAITRRSGNTRYADSVKGRFTISRDNAKNTVYLQMNSLKPEDTAVYYCNARWFSYARGFENGYWGQGTQVTVSS | high polyreactivity
29 | QVQLVESGGGLVQAGGSLRLSCAASGSIFRYYVMGWYRHAPGKERELVAAISGGSTYYADSVKGRFTISRDNAKNTVYLQMNSLKPEDTAVYYCAARGKRRSGGENYAYGYWGQGTQVTVSS | high polyreactivity
30 | QVQLVESGGGLVQAGGSLRLSCAASGSIFRIYAMGWYRQAPGIERELVAAINAGGGRTYYADSVKGRFTISRDNAKNTVYLLMNSLKPEDTAVYYCAARHTEYRQESLYYWGQGTQVTVSS | low polyreactivity
31 | QVQHVESVGRLVQAGGSLRLSCAASGFTFKYYAMGWYRQAPGKERELVAVISSSGGSTYYADSVKGRFTISRDNAKNTVYLQMNSLKPEDTAVYYCAAELVYRYFVKDADDYWGQGTQVTVSS | low polyreactivity
32 | QVQLVESGGGLVQAGGSLRLSCAASGKTFVTYAMGWYRQAPGKERELVATISSSGGSTYYADSVKGRFTISRDNAKNTVYLQMNSLKPEDTAVYYCAKQAWAYALYTNFYSGDYGYWGQGTQVTVSS | low polyreactivity
33 | QVQLVESGGGLVQAGGSLRLSCAASGSIFRYYDMGWYRQAPGKERELVAAISDSTGTTYYADSVKGRFTISRDNAKNTVYLQMNSLKPEDTAVYYCTAGYDPRYDYWGQGTQVTVSS | high polyreactivity
34 | QVQLVESGGGLVQAGGSLRLSCAASGNIFAWYAMGWYRQAPGKERELVADISSRGGSTYYADSVKGRFTISRDNAKNTVYLQMNRLKPEDTAVYYCAAVWYWTQDYDYWGQGTQVTVSS | low polyreactivity
35 | QVQLVESVGGLVQAGRSHRLSGAASCFTFTGYALGWYRQAPGKEREFVAAISRGGSTKYADSVMGRFTISRDNAKNTVYLQMNSLKPEDTAVYYCDASPVYGISRYTLGIYNYGGQGTQVTVSS | high polyreactivity
36 | QVQLVESGGGLVQAGGSLSLSCAASGFILDYNTKGWYRQAPGKEREVVAAISSSGDTTYYADSVKGRFTISRDNAKYTVYLQMNSLKPEDTAVYYCAREYGDGYEYWVQGTQVTVSS | low polyreactivity
37 | QVQLVESGGGLVQAGGSLRLSCAASGRTFFGYAMGWYRQAPGKERELVAAITSSGGRTYYADSVKGRFTISRDNAKNTVYLQMNSLKTEDTAVYYCNTVLSFRSVNIYRGRGDYWGQGTLVTVSS | high polyreactivity
38 | QVQLAESGGGLVQAGGSLRLSCAASGSIFRLNAMGWYRQAPGKERELVAAINSGTNTYYADSVKGRFTISRDNAMNTVYLQMNSLKPEDTAVYYCAADWNDWHYDYWGQGTQVTVSS | low polyreactivity
39 | QVHLVESGGGLVQAGGSLRLSCAASGSTFNYNAMGWYRQAPGKERELVAAISGSGGSTYYADSVKGRFTISRDNAKNSVYLQMNSLKPEDTAVDYCAGLYGPGRAFDYWGQGTQVTVSS | low polyreactivity
40 | QVQLVESGGGIVQAGGSLRLSCAASGRTFNYYAMGWYRQAPGKEREWVAAISSSGGRTYYADSVKGRFTISRDNAKNTVYLQMNSLKPEDTAVYYCAATGGGYKHWFDYWGQGTQVTVSS | low polyreactivity
41 | QVQLVESGGGLVQAGGSLRLSCAGYGRIFEDNSMVSYRQPPGKERELVAAISSGDSTKYADSVKGRFTISRDNAKTTVYLQIKSLKQEDTAVYYCAAERNHGLVGSESVGRNVYWGHGTQVTVSS | low polyreactivity
42 | QVQLVESGGGLVQAGGSLRLSCAASGSIFGLYTMGWYRQAPGKERELVAAIDSGDSTNYADSVKGRFTISRDNEKNTVYLQMNSLKQEDTAVYYCNALGEYPYYSSFWYESWGQGTQVTVSS | low polyreactivity
43 | QVQLVESGGGLVQAGGSLRLSCAASGIIFGGYDMGWYRQAPGKERELVAGIRSGGSTYYADSVKGRFTISRDNAKNTVYLQMNSLKPEDTAVYYCAADSYTEVDYWGQGSQVTVSS | low polyreactivity
